Assay results published in patent publication US20210221869A1.

Target: M22 antibody (thyrotropin receptor autoantibody)
Assay: M22-blocking ELISA (KRONUS kit): fusion protein in 2-fold dilutions pre-incubated with peroxidase-M22, then added to the kit plate

Substance: TSHR 21-282 D43A (N01) (Fc fusion)
- IC50: 3 µg/mL
